The text below walks through data of patent publication US20250346678A1 (AP BIOSCIENCES, published 2025).

Test [1] deals with T1, human OX40 expressed on cells (human, UniProt P43489 29-277).
T1 construct: whole, on cells; also called OX40 expression HEK293 cells
T1 sequence (looked up): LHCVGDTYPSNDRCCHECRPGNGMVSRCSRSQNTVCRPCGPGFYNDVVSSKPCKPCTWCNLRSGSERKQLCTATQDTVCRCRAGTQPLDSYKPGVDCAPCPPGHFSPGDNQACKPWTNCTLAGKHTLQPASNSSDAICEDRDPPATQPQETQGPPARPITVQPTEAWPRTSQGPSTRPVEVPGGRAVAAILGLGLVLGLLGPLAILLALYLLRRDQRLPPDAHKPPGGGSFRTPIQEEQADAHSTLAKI
Nature of the test: phage display selection and cell-based ELISA screening. The method, then:
(§1) For the generation of therapeutic antibodies against PD-L1 or OX40, selections with the OmniMab phagemid library were carried out. The phagemid library is generated by AP Biosciences Inc. (APBio Inc.) from a collection of over hundred health donors B cells. Phages for the 1st round of pannings were prepared by Hyperphage (M13K07ΔρIII, Progen, Heidelberg, Germany). Solid phase panning and cell panning against PD-L1 or OX40 were applied for PD-L1 or OX40 specific binder selection and isolation from OmniMab library. […] Bound phages were detected by HRP conjugated anti-M13 antibody (Roche) and TMB substrate was used for signal development. The OD₄₅₀ readings were recorded. The positive binders were isolated and sent for sequencing to confirm the sequence and diversity of heavy chain and light chain.
For orientation: ELISA stands for enzyme-linked immunosorbent assay.

The target of the next test is T2, human PD-L1 (human, UniProt Q9NZQ7 19-238, limits assumed).
T2 construct: also called recombinant PD-L1
The test is described as follows: direct ELISA.

The target in test [2] is T3, human PD-L1 expressed on cells (human, UniProt Q9NZQ7 19-290).
T3 construct: whole, on cells; also called PD-L1 expression HEK293 cells
Nature of the test: flow cytometry on stable PD-L1 expression 293 cells, IFN-γ stimulated A549 or WiDr. The source says: The bound antibody fusion proteins were detected with Alexa-488 conjugated goat anti-human IgG (H+L) followed by FACS analysis. Isotype antibody was used as negative control for the test.
(In general: Flow cytometry measures light scatter and fluorescence of single cells or particles in a stream.)

Test [3] concerns the target T4, human PD-L1 IgG1 Fc chimera (human, UniProt Q9NZQ7 19-238, limits assumed).
T4 construct: Made by APBio; also called PD-L1-Fc; recombinant human PD-L1-Fc
Nature of the test: phage display selection and direct ELISA screening. Here is the method: as §1

T3 sequence (Q9NZQ7 19-290): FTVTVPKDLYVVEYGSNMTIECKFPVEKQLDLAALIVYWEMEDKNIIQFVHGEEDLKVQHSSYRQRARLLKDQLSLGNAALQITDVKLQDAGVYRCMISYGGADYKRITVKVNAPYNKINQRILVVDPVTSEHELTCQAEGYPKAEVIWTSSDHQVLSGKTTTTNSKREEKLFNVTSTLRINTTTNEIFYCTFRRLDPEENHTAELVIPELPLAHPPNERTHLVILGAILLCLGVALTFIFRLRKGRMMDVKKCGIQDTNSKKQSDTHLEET
T4 sequence (Q9NZQ7 19-238 limits assumed, change not shown): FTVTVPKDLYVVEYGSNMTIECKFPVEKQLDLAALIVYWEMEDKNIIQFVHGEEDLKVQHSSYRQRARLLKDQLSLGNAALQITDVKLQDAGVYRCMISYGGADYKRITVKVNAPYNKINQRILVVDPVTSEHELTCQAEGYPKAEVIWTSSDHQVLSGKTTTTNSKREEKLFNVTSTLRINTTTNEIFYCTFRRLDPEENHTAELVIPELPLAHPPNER
T2 sequence (Q9NZQ7 19-238 limits assumed): as the sequence (Q9NZQ7 19-238 limits assumed, change not shown) above

B1: OM-OX40-B17 (Fab, V domains shown)
VH: EVQLVESGGVVVQPGGSLRLSCAASGFTFDDYTMHWVRQAPGKGLEWVSLISWDGGSTYYADSVKGRFTISRDNSKNSLYLQMNSLRTEDTALYYCASIYDPPPGSRSALDAFDIWGQGTMVTVSS
VL: SYVLTQPPSVSVTPGKTARIACGGNNLESKIVSWYQQKPGQAPVLVIFYDTDRPSGISERFSGSNSGNTATLTISRVEAGDEADYYCQVWDSNSDHVIFGGGTKLTVLG
notes: Fab from the phage library; variable regions identical to those of OX40 clone B17
Turning to B1, the binding result in test [1] is recorded as “binds”.

B2: OM-OX40-B19 (Fab, V domains shown)
VH: EVQLVESGGGLVKPGGSLRLSCAASGFTFSSYSMNWVRQAPGKGLEWVSSISSSSRYIYYADSVKGRFTISRDNAKNSLYLQMNSLRAEDTAVYYCARQNEDVAFGIWGQGTMVTVSS
VL: SYVLTQPPSVSVTPGKTARIACGGNNLESKIVSWYQQKPGQAPVLVIFYDTDRPSGISERFSGSNSGNTATLTISRVEAGDEADYYCQVWDSNSDHVIFGGGTKLTVLG
notes: Fab from the phage library; variable regions identical to those of OX40 clone B19
Regarding B2, the binding result in test [1] is “binds”.

B3: OM-OX40-A4 (Fab, V domains shown)
VH: QVQLVESGGGLVQPGGSLRLSCAASGFTFSSYEMNWVRQAPGKGLEWVSYISSSGSTIYYADSVKGRFTISRDNAKNSLYLQMNSLRAEDTAVYYCARGGVGDAFDIWGQGTMVTVSS
VL: QSALTQPPSASGSPGQSVTISCTGTSSDVGGYNYVSWYQQHPGKAPKLMIYEVSQRPSGVPDRFSGSKSGNTASLTVSGLQAEDEADYYCSSYAGSNNLGVFGGGTKLTVSS
notes: Fab from the phage library
With B3, the binding result in test [1] is listed as “binds”.

B4: anti-PD-L1 antibody clone 6 (antibody, human IgG4 S228P, lambda, V domains shown)
VH: QVQLVQSGAEVKKPGSSVKVSCKASGGTFRRYSISWVRQAPGQGLEWMGGIIPVFGAAKYAQKFQGRVTITADEFTSTAYMELSSLTSEDTAVYYCALSGDSDAFDIWGQGTMVTVSS
VL: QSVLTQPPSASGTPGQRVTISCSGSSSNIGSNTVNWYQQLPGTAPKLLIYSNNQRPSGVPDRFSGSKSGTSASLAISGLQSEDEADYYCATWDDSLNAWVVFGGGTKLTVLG
notes: also called PD-L1 clone 6; PD-L1-Clone 6
As to B4, the binding result (with human PD-L1; in test [2]) was “binds” in each case.

B5: OM-PD-L1-6 (Fab, V domains shown)
VH: QVQLVQSGAEVKKPGSSVKVSCKASGGTFRRYSISWVRQAPGQGLEWMGGIIPVFGAAKYAQKFQGRVTITADEFTSTAYMELSSLTSEDTAVYYCALSGDSDAFDIWGQGTMVTVSS
VL: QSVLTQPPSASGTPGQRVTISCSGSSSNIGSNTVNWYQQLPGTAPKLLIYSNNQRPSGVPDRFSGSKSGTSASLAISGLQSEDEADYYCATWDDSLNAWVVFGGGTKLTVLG
notes: Fab from the phage library
Consider B5, for which the binding result in test [3] is recorded as “binds”.
